Measurements as given in article PMC2764403 (Biochemistry, 2009).

Key:
Assay in all cases: AUC
[1] = molecular target: human βA3-crystallin (human) (UniProt P05813)
[2] = molecular target: βB1ΔN47, tryptic product of murine βB1-crystallin (residues 1-47 removed) (murine)
[3] = molecular target: βB1ΔN56, murine βB1-crystallin with N-terminal residues 1-56 deleted (murine)
AUC = molecular target: the molecule itself
murine βB1-crystallin = molecular target: T1, murine βB1-crystallin (murine, UniProt Q9WVJ5 1-250)
T1 sequence (looked up): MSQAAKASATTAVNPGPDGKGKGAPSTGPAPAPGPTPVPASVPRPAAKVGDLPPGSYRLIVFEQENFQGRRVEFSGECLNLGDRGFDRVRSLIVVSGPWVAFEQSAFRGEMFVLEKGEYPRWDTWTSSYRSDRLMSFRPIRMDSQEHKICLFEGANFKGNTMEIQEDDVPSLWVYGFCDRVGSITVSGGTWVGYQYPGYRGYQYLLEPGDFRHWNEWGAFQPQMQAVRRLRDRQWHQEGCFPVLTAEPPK

In the case of “βB1ΔN47, tryptic product of murine βB1-crystallin (residues 1-47 removed) (domain or fragment)”, the Kd [1] is reported as 200 nM, the Kd [2] is reported as 1400 nM and the stoichiometry N [2] is reported as 2.

Work on “βB1ΔN56, murine βB1-crystallin with N-terminal residues 1-56 deleted (domain or fragment)” yielded a stoichiometry N [3] of 4.

B1: βA3ΔN30, human βA3-crystallin with N-terminal residues 1-30 deleted and residue 31 replaced by glycine (domain or fragment, UniProt P05813-1 31-215, looked up)
chain: GKITIYDQENFQGKRMEFTSSCPNVSERSFDNVRSLKVESGAWIGYEHTSFCGQQFILERGEYPRWDAWSGSNAYHIERLMSFRPICSANHKESKMTIFEKENFIGRQWEISDDYPSLQAMGWFNNEVGSMKIQSGAWVCYQYPGYRGYQYILECDHHGGDYKHWREWGSHAQTSQIQSIRRIQQ
For B1, the Kd (AUC) was 100 nM, the “stoichiometry N” value (AUC) was 2 and the Kd (murine βB1-crystallin) was 5000 nM.
